Laboratory results: US20220340684A1

Key:
[1] = target: Recombinant human TRIM21 PRYSPRY domain (His-tagged, expressed in E. coli BL21 (DE3)) (human) (UniProt P19474); test: SPR, antibody immobilized, TRIM21 PRYSPRY as analyte
[2] = target: Recombinant human TRIM21 PRYSPRY domain (His-tagged, expressed in E. coli BL21 (DE3)) (human) (UniProt P19474); test: SPR, antibody immobilized, TRIM21 PRYSPRY as analyte; the column's head prints (M), the text gives 125 nM
[3] = target: Human TRIM21 (endogenous, cytosolic, in moDC and HeLa cells) (human) (UniProt P19474); test: cell-based or functional assay
[4] = target: Recombinant human TRIM21 PRYSPRY domain (His-tagged, expressed in E. coli BL21 (DE3)) (human) (UniProt P19474); test: SPR (ProteON XPR36), antibody amine-coupled to GLC chip, TRIM21 PRYSPRY as analyte, Langmuir 1:1

Sequence of Recombinant human TRIM21 PRYSPRY domain (His-tagged, expressed in E. coli BL21 (DE3)) (human) (P19474 287-475): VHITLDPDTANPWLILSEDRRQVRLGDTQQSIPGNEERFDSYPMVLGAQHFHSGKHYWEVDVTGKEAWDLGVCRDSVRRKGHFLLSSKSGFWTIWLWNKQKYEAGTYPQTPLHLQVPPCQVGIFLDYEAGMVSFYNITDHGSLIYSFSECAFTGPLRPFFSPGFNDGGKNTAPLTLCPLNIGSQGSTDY
Sequence of Human TRIM21 (endogenous, cytosolic, in moDC and HeLa cells) (human) (P19474 whole entry, the tested form may be a part): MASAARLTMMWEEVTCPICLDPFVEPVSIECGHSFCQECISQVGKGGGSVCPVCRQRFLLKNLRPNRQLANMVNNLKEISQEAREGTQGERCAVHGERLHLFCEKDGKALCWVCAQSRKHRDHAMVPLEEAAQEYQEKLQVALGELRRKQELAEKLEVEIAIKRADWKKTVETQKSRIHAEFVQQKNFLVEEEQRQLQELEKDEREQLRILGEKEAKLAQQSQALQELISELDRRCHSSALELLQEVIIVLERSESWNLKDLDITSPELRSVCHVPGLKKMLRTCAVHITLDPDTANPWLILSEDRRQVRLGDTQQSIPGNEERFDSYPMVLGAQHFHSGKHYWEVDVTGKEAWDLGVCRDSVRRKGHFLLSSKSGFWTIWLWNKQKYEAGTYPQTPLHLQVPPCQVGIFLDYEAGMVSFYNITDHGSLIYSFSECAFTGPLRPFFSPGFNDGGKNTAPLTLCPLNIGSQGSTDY

Row | Kd [1] | Substance | other results
1 | 0.276 nM | V4 chimeric IgG1 (9C12 variable domains, human IgG1 with 256P/433T/434R/436F Fc) (antibody) | 
2 | 1620 nM | V2 chimeric IgG1 (9C12 variable domains, human IgG1 with 256P/433T/436F/440I Fc) (antibody) | 

Further lines, the substance ahead of its results:

Row | Substance | Kd [1] | other results
3 | V3 chimeric IgG1 (9C12 variable domains, human IgG1 with 256P/433T/434R/440I Fc) (antibody) | 0.211 nM | 
4 | Wildtype chimeric IgG1 (anti-Ad5 hexon, mouse 9C12 variable domains, wildtype human IgG1 constant regions) (antibody) |  | Kd [2]: 125 nM; IC50 of ADIN of Ad5-eGFP infection in moDCs, MOI 400 [3]: 3 nM; IC50 of antibody-dependent intracellular neutralization (ADIN) of Ad5-eGFP infection in HeLa cells, MOI 1.2 [3]: 900 nM
5 | V5 chimeric IgG1 (9C12 variable domains, human IgG1 with 433T/434R/436F/440I Fc, Thr at 256) (antibody) | 23.5 nM | 
6 | V1 chimeric IgG1 (9C12 variable domains, human IgG1 with 256P/434R/436F/440I Fc) (antibody) | 10.8 nM | 
7 | Fc-unmodified human IgG1 (anti-DEC205, variable domains of 3G9-2D2, wildtype human IgG1 constant regions) (antibody) |  | Kd [4]: 47.3 nM
